Experimental data: article PMC7929502

Biological target: T1, human Derlin-1 (hDERL1), full length, purified from Expi293F cells (human), Q9BUN8
T1 chain: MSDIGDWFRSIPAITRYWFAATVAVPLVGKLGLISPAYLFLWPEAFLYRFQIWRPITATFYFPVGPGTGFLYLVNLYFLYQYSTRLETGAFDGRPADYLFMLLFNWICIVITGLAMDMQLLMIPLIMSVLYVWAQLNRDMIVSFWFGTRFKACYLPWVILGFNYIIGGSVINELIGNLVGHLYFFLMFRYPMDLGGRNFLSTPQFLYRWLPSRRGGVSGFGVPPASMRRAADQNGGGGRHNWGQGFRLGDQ
Test: cryo-EM structure
Conditions: remark: other sources report otherwise

stoichiometry N: 4
B1: human Derlin-1 (hDERL1), full length, purified from Expi293F cells, Q9BUN8-1 1-251 (natural protein)
chain: T1 chain
